Test results published in publication PMC9271913.

Biological target: Human Flag-tagged RER1 TP37_38AA mutant (human)
Assay: co-IP; SH-SY5Y and U251 cells co-transfected with Flag-tagged RER1 (wild type or mutant) and NEDD4-2-HA, with or without Tg (0.5 uM); gentle RIPA lysis buffer; anti-Flag or anti-HA on Protein A/G magnetic beads, 4°C overnight; immunoblot

Sequence of Human Flag-tagged RER1 TP37_38AA mutant (human) (P78508 whole entry, change not shown): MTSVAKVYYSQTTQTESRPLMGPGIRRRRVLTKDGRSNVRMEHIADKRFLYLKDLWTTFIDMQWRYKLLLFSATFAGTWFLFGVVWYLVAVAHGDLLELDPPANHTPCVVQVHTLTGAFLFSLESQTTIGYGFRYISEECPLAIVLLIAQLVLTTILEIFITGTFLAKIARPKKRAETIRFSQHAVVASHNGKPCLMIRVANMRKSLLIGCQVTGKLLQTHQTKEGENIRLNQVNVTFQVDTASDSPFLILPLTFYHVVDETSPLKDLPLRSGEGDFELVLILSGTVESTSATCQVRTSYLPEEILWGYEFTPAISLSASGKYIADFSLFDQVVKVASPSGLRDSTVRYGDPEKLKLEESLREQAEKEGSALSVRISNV

interaction in percent of wild-type RER1 (co-IP densitometry): 30 to 40%
Substance: Human HA-tagged NEDD4-2 (from UniProt Q96PU5-5 1-955) (natural protein)
